What was measured:
[1] = molecular target: T1, DLL3 targeting trispecific protein containing 52D04, anti-CD3:anti-ALB:anti-DLL3 (CAT) configuration; experiment: flow cytometry on NCI-H82, SHP77, DMS53, NCI-H2171 cells
T1 construct: also called DLL3-targeting TriTAC

[2] = molecular target: T2, DLL3 targeting trispecific protein containing 52D04, anti-DLL3:anti-ALB:anti-CD3 (TAC) configuration; experiment: as above
T2 construct: also called DLL3-targeting TriTAC

[3] = molecular target: DH6 anti-DLL3 trispecific protein; experiment: Octet BLI, single 60 nM
[4] = molecular target: DH43 anti-DLL3 trispecific protein; experiment: Octet BLI, single 60 nM
[5] = molecular target: 51G10 anti-DLL3 trispecific protein (CHO expressed, purified) (biotinylated); experiment: Octet BLI, biotinylated trispecific on streptavidin tips
[6] = molecular target: T3, 51G2 anti-DLL3 trispecific protein (CHO expressed, purified) (biotinylated); experiment: as above
T3 construct: also called 51G02
T3 sequence (chain, as listed by the source): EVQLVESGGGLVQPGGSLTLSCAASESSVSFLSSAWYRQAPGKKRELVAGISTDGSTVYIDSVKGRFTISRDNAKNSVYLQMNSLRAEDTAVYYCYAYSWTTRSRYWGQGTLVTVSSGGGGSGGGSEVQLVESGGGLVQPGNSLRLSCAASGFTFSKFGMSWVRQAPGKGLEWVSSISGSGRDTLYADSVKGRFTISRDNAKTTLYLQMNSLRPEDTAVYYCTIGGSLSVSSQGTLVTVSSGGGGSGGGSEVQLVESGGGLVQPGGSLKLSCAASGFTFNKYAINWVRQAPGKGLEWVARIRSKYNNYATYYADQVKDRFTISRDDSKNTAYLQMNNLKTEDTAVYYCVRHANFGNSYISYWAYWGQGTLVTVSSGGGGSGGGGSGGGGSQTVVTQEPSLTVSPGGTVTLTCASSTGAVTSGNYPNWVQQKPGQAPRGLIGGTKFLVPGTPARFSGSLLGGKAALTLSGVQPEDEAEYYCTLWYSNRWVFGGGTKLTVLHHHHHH

Chain of 51G10 anti-DLL3 trispecific protein (CHO expressed, purified) (biotinylated) (chain, as listed by the source): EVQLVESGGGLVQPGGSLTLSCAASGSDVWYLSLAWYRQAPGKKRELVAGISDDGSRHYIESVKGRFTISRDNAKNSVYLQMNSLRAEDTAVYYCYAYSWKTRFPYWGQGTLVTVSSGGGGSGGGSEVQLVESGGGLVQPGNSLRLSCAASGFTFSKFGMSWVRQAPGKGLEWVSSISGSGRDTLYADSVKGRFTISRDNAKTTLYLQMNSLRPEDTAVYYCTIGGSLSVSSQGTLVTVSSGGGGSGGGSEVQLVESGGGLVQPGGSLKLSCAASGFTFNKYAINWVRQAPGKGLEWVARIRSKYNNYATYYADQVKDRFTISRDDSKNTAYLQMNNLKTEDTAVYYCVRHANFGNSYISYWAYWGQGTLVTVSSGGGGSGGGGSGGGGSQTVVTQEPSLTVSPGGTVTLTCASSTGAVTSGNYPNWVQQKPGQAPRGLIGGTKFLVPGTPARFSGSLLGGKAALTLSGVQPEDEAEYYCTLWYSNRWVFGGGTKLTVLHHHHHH
T1 sequence (chain, as listed by the source): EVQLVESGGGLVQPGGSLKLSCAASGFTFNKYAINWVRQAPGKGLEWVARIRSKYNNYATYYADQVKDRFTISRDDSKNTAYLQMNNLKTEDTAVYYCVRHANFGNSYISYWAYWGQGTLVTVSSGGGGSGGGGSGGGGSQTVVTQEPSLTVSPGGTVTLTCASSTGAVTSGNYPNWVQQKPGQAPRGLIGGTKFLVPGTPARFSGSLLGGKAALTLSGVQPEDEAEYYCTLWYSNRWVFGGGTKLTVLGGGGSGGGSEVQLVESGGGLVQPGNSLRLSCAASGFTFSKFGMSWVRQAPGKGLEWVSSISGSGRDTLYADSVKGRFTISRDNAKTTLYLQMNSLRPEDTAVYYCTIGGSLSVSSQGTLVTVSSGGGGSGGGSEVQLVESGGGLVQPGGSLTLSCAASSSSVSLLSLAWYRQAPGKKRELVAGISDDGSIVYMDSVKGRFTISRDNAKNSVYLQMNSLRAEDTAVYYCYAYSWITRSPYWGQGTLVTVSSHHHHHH
Chain of DH43 anti-DLL3 trispecific protein (chain, as listed by the source): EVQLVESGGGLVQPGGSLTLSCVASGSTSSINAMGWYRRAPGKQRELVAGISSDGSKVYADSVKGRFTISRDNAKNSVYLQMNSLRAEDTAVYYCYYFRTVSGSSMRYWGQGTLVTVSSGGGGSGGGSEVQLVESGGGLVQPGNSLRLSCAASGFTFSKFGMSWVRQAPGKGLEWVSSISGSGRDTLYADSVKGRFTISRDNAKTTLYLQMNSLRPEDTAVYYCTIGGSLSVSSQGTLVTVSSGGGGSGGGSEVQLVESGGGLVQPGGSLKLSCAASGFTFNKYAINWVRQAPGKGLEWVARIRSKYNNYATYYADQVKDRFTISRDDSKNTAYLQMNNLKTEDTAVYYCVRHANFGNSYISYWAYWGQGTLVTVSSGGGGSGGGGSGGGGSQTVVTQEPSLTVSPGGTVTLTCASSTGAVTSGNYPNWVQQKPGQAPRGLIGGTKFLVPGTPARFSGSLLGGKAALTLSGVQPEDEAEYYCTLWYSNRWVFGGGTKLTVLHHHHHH
Chain of DH6 anti-DLL3 trispecific protein (chain, as listed by the source): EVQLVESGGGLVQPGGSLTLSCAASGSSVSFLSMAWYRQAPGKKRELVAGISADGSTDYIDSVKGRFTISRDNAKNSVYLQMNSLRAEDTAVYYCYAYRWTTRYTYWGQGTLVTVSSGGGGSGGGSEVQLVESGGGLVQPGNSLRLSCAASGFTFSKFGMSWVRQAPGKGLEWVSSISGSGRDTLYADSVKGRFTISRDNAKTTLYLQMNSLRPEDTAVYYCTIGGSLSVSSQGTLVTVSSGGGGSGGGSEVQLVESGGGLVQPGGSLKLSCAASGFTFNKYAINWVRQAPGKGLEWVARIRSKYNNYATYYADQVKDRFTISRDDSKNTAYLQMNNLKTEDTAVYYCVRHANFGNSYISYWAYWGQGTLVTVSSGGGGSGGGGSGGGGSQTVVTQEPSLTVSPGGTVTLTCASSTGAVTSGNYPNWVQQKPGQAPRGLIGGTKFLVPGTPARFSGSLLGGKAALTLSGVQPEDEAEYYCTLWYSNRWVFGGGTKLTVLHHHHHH
T2 sequence (chain, as listed by the source): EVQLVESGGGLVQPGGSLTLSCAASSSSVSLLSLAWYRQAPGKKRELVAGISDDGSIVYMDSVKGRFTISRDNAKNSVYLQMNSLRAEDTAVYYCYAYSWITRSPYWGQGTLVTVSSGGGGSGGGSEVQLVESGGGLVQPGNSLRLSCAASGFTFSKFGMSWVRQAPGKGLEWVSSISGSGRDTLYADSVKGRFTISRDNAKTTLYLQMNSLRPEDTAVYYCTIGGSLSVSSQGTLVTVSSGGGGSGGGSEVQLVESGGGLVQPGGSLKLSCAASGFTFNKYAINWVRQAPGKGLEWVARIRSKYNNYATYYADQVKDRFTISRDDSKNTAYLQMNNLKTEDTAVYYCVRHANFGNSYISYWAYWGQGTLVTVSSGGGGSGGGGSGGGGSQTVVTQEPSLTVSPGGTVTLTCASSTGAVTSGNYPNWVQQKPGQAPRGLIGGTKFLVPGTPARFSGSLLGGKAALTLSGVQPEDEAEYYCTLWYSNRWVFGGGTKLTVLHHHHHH

binding result [1]	binding result [2]	Kd [3]	Kd [4]	Kd [5]	Kd [6]	Binder
binds	binds					human DLL3 on DLL3-expressing tumor cell lines (ligand, endogenous DLL3 of human cancer cell lines) AGVFELQIHSFGPGPGPGAPRSPCSARLPCRLFFRVCLKPGLSEEAAESPCALGAALSARGPVYTEQPGAPAPDLPLPDGLLQVPFRDAWPGTFSFIIETWREELGDQIGGPAWSLLARVAGRRRLAAGGPWARDIQRAGAWELRFSYRARCEPPAVGTACTRLCRPRSAPSRCGPGLRPCAPLEDECEAPLVCRAGCSPEHGFCEQPGECRCLEGWTGPLCTVPVSTSSCLSPRGPSSATTGCLVPGPGPCDGNPCANGGSCSETPRSFECTCPRGFYGLRCEVSGVTCADGPCFNGGLCVGGADPDSAYICHCPPGFQGSNCEKRVDRCSLQPCRNGGLCLDLGHALRCRCRAGFAGPRCEHDLDDCAGRACANGGTCVEGGGAHRCSCALGFGGRDCRERADPCAARPCAHGGRCYAHFSGLVCACAPGYMGARCEFPVHPDGASALPAAPPGLRPGDPQRYLLPPALGLLVAAGVAGAALLLVHVRRRGHSQDAGSRLLAGTPEPSVHALPDALNNLRTQEGSGDGPSSSVDWNRPEDVDPQGIYVISAPSIYAREVATPLFPPLHTGRAGQRQHLLFPYPSSILSVK
		10 nM	8.5 nM	1.4 to 3.4 nM	1.4 to 3.4 nM	cynomolgus DLL3 (ligand, also called cyDLL3) AGVFELQIHSFGPGPGGAPRSPYSARGPCRLFFRVCLKPGLSEEAAESPCALGAALSARGPVYTEQPEAPAPDLPLPNGLLQVPFRDAWPGTFSLIIETWREELGDQIGGPAWSLLARVTRRRRLAAGGPWAGDIQRAGAWELRFSYRARCELPAVGTACTRLCRPRSASRCGPGLRPCAPLEDECEAPPVCRAGCSLEHGFCEQPGECRCLEGWTGPLCMVPVSTSSCLGLRGPSSTTTGCLVPGPGPCDGNPCANGGSCSETPGSFECTCPRGFYGLRCEVSGVTCADGPCFNGGLCVGGADPDSAYICHCPPGFQGSNCEKRVDRCSLQPCRNGGLCLDLGHALRCRCRAGFAGPRCEHDLNDCAGRACANGGTCVEGGGAHRCSCALGFGGRDCRERADPCAARPCAHGGRCYAHFSGLVCACAPGYMGARCEFPVHPDGVSALPAAPPGLRPGDPQRYP

Reference: patent US20240141072A1 (published 2024)
